Measurements as given in patent publication US20260070976A1 (Alector, published 2026).

Columns and labels:
[1] = molecular target: cell surface PILRA on human monocytes (human, UniProt Q9UKJ1 20-303); experiment: cell-based or functional assay
[2] = molecular target: T1, human PILRB on HEK293F cells (human, UniProt Q9UKJ0 20-227); experiment: hB Kd of Table 9; method not stated (Example 8: HEK293F overexpressing cells, FACS)
T1 construct: also called hB

[3] = molecular target: T2, human PILRA G78 on HEK293F cells (human, UniProt Q9UKJ1 20-303); experiment: flow cytometry; HEK293F cells overexpressing human PILRA, goat anti-human IgG Alexa Fluor 647
T2 construct: also called hA; G78 OE
Method: Conditioned media samples containing the tested anti-PILRA antibodies were assessed for binding to HEK293F cells overexpressing human PILRA (hA), human PILRB (hB), and cynomolgus PILRA (cA) by FACS. The conditioned media containing the tested antibodies were incubated with the cells for 30 min at 4° C., washed twice, and then detected with goat anti-human IgG secondary antibody (Alexa Fluor 647) at 1:1000 dilution. The cells were analyzed by flow cytometry on FACS Canto II, and for all cell lines, the reported MFI values were calculated for each conditioned media. These antibodies were evaluated for nonspecific binding using a baculovirus particle (BVP) assay (Jain T., Sun T., Durand S., Hall A., Houston N. R., Nett J. H., Sharkey B., Bobrowicz B., Caffry L, Yu Y., et al. Biophysical properties of the clinical-stage antibody landscape. Proc. Natl. Acad. Sci. USA. 2017; 114:944-949. Doi: 10.1073/pnas.1616408114.). The BVP scores are listed in Table 9, and the higher the score the more nonspecific binding that occurred.

[4] = molecular target: cynomolgus PILRA on HEK293F cells (cynomolgus monkey, UniProt A0A7N9CRU1 20-292); experiment: flow cytometry; HEK293F cells overexpressing cynomolgus PILRA, goat anti-human IgG Alexa Fluor 647
[5] = molecular target: T2, human PILRA G78 on HEK293F cells; experiment: flow cytometry blocking assay; antibody on HEK293F cells overexpressing human PILRA G78, then 5 ug/mL NPDC1 Fc as the blocked ligand; cell-bound NPDC1 Fc read as MFI
Method: A dose response curve of antibodies X0 (PA-29), X1, X2, X7, X11, X12, X13, X14, X16, X18, and X20 was assessed for modulating the binding of Neural Proliferation Differentiation and Control Protein 1 (NPDC1) Fc to 293 cells ectopically expressing human PILRA (HEK293F human PILRA G78 overexpressing cells). Conditioned media samples containing antibodies were incubated with human PILRA overexpressing cells for 30 minutes at 4° C., and then 5 μg/mL NPDC1 Fc was added to this mixture. After 30 minutes of incubation at 4° C., the cells were washed and cell-bound NPDC1 Fc was detected with anti-human IgG Alexa Fluor 647. The cells were analyzed by flow cytometry on FACS Canto II with the percentage of NPDC1 Fc binding in the presence of conditioned media relative to NPDC1 Fc binding alone was calculated. […] All tested antibodies decreased binding of NPDC1 to human PILRA.

T2 sequence (Q9UKJ1 20-303 R78G): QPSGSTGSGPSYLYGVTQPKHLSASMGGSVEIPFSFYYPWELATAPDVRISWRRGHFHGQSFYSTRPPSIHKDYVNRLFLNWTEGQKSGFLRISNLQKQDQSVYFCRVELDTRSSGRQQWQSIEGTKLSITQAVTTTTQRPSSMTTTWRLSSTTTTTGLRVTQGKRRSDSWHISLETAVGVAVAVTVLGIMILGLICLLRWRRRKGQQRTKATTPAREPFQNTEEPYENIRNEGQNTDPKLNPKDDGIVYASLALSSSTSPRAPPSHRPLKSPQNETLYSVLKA
cynomolgus PILRA on HEK293F cells, sequence (A0A7N9CRU1 entry or part of it): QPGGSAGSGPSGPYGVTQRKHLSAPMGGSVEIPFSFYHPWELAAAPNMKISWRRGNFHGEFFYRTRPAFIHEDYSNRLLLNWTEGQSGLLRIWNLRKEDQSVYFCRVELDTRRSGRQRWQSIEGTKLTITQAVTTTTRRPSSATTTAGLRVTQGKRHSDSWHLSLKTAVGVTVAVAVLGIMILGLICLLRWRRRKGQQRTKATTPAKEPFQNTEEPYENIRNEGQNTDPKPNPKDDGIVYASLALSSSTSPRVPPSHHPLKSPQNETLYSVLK
T1 sequence (Q9UKJ0 20-227): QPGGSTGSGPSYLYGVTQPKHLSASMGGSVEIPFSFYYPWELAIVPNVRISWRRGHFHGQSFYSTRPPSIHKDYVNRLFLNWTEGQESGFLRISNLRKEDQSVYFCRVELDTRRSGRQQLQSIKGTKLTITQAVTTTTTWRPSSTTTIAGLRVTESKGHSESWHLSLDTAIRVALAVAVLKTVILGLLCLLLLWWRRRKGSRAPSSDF
cell surface PILRA on human monocytes, sequence (Q9UKJ1 20-303): as the sequence (Q9UKJ1 20-303 R78G) above, with G59R counted along it

B1: X13 (antibody, human IgG4, V domains shown)
VH: QVQLVQSGAEVKKPGSSVKVSCKASGYNFLHYDVNWVRQAPGQGLEWMGGIIPIFGTANYAQKFQGRVTITADESTSTAYMELSSLRSEDTAVYYCATAVGAGWFDPWGQGTLVTVSS
VL: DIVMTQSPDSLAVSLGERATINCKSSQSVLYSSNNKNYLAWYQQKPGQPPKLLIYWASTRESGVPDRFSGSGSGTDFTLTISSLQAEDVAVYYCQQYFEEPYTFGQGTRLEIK
notes: conditioned media in the HEK293F assays
Q: What does the source list for B1?
A: Hu Mono DR EC50 [1]: ~0.0004 µg/mL; Kd [2]: 51.5 nM; EC50 (read off the curve) [3]: ~0.3 µg/mL; EC50 (read off the curve) [4]: ~0.5 µg/mL; IC50 (read off the curve) [5]: ~0.08 µg/mL
